Reference: PMC5626548

What was measured:
[1] = molecular target: full-length BICD2 F739I (mouse) (UniProt Q921C5); assay: pull-down
[2] = molecular target: full-length BICD2 I189F (mouse) (UniProt Q921C5); assay: pull-down
[3] = molecular target: full-length BICD2 N188T (mouse) (UniProt Q921C5); assay: pull-down
[4] = molecular target: full-length BICD2 S107L (mouse) (UniProt Q921C5); assay: pull-down
[5] = molecular target: full-length BICD2 (Bicaudal D2), wild type (mouse) (UniProt Q921C5); assay: pull-down
[6] = molecular target: Rab6a^GTP (Rab6a–Q72L, aa 8–195, KCK motif) linked to liposomes (mouse) (UniProt P35279); assay: fluorescence intensity of BICD2–GFP on liposomes

Substance | ratio of band intensity, mutant to WT BICD2 (lysate only) [1] | ratio of band intensity, mutant to WT BICD2 (lysate only) [2] | ratio of band intensity, mutant to WT BICD2 (lysate only) [3] | ratio of band intensity, mutant to WT BICD2 (lysate only) [4] | fold increase of the pull-down at the highest Rab6a^GTP concentration [5] [fold] | BICD2 molecules per Rab6a^GTP liposome (molecules per liposome) [6]
cytoplasmic dynein, endogenous in porcine brain lysate (complex) | 1.95 | 1.61 | 2.24 | 2.44 |  | 
dynactin, endogenous in porcine brain lysate (from UniProt A0A287B8J2 1-1281) (complex) | 3.65 | 1.88 | 3.86 | 2.88 | 10 | 
full-length BICD2 (Bicaudal D2), wild type (from UniProt Q921C5 1-820) (natural protein) |  |  |  |  |  | 6.01
